IntAct's records for PubMed 31515488

B1: KAT8 regulatory NSL complex subunit 1 (Homo sapiens), Q7Z3B3 (parent)
chain: MAAMAPALTDAAAEAHHIRFKLAPPSSTLSPGSAENNGNANILIAANGTKRKAIAAEDPSLDFRNNPTKEDLGKLQPLVASYLCSDVTSVPSKESLKLQGVFSKQTVLKSHPLLSQSYELRAELLGRQPVLEFSLENLRTMNTSGQTALPQAPVNGLAKKLTKSSTHSDHDNSTSLNGGKRALTSSALHGGEMGGSESGDLKGGMTNCTLPHRSLDVEHTTLYSNNSTANKSSVNSMEQPALQGSSRLSPGTDSSSNLGGVKLEGKKSPLSSILFSALDSDTRITALLRRQADIESRARRLQKRLQVVQAKQVERHIQHQLGGFLEKTLSKLPNLESLRPRSQLMLTRKAEAALRKAASETTTSEGLSNFLKSNSISEELERFTASGIANLRCSEQAFDSDVTDSSSGGESDIEEEELTRADPEQRHVPLRRRSEWKWAADRAAIVSRWNWLQAHVSDLEYRIRQQTDIYKQIRANKGLIVLGEVPPPEHTTDLFLPLSSEVKTDHGTDKLIESVSQPLENHGAPIIGHISESLSTKSCGALRPVNGVINTLQPVLADHIPGDSSDAEEQLHKKQRLNLVSSSSDGTCVAARTRPVLSCKKRRLVRPNSIVPLSKKVHRNSTIRPGCDVNPSCALCGSGSINTMPPEIHYEAPLLERLSQLDSCVHPVLAFPDDVPTSLHFQSMLKSQWQNKPFDKIKPPKKLSLKHRAPMPGSLPDSARKDRHKLVSSFLTTAKLSHHQTRPDRTHRQHLDDVGAVPMVERVTAPKAERLLNPPPPVHDPNHSKMRLRDHSSERSEVLKHHTDMSSSSYLAATHHPPHSPLVRQLSTSSDSPAPASSSSQVTASTSQQPVRRRRGESSFDINNIVIPMSVAATTRVEKLQYKEILTPSWREVDLQSLKGSPDEENEEIEDLSDAAFAALHAKCEEMERARWLWTTSVPPQRRGSRSYRSSDGRTTPQLGSANPSTPQPASPDVSSSHSLSEYSHGQSPRSPISPELHSAPLTPVARDTPRHLASEDTRCSTPELGLDEQSVQPWERRTFPLAHSPQAECEDQLDAQERAARCTRRTSGSKTGRETEAAPTSPPIVPLKSRHLVAAATAQRPTHR
B2: Elongin-A2 (Homo sapiens), Q8IYF1 (parent)
chain: MAAGSTTLHAVEKLQVRLATKTEPKKLEKYLQKLSALPMTADILAETGIRKTVKRLRKHQHVGDFARDLAARWKKLVLVDRNTRPGPQDPEESASRQRFGEALQDQEKAWGFPENATAPRSPSHSPEHRRTARRTPPGQQRPHPRSHSREPRAERKCPRIAPADSGRYRASPTRTAPLRMPEGPEPAAPGKQPGRGHTHAAQGGPLLCPGCQGQPQGKAVVSHSKGHKSSRQEKRPLCAQGDWHSPTLIREKSCGACLREETPRMPSWASARDRQPSDFKTDKEGGQAGSGQRVPALEEAPDSHQKRPQHSHSNKKRPSLDGRDPGNGTHGLSPEEKEQLSNDRETQEGKPPTAHLDRTSVSSLSEVEEVDMAEEFEQPTLSCEKYLTYDQLRKQKKKTGKSATTALGDKQRKANESKGTRESWDSAKKLPPVQESQSERLQAAGADSAGPKTVPSHVFSELWDLSEAWMQANYDPLSDSDSMTSQAKPEALSSPKFREEAAFPGRRVNAKMPVYSGSRPACQLQVPTLRQQCAQVLRNNPDALSDVGEVPYWVLEPVLEGWRPDQLYRRKKDNHALVRETDELRRNHCFQDFKEEKPQENKTWREQYLRLPDAPEQRLRVMTTNIRSARGNNPNGREAKMICFKSVAKTPYDTSRRQEKSAGDADPENGEIKPASKPAGSSHTPSSQSSSGGGRDSSSSILRWLPEKRANPCLSSSNEHAAPAAKTRKQAAKKVAPLMAKAIRDYKRRFSRR
B3: Centrosomal protein of 55 kDa (Homo sapiens), Q53EZ4 (parent)
chain: MSSRSTKDLIKSKWGSKPSNSKSETTLEKLKGEIAHLKTSVDEITSGKGKLTDKERHRLLEKIRVLEAEKEKNAYQLTEKDKEIQRLRDQLKARYSTTTLLEQLEETTREGERREQVLKALSEEKDVLKQQLSAATSRIAELESKTNTLRLSQTVAPNCFNSSINNIHEMEIQLKDALEKNQQWLVYDQQREVYVKGLLAKIFELEKKTETAAHSLPQQTKKPESEGYLQEEKQKCYNDLLASAKKDLEVERQTITQLSFELSEFRRKYEETQKEVHNLNQLLYSQRRADVQHLEDDRHKTEKIQKLREENDIARGKLEEEKKRSEELLSQVQFLYTSLLKQQEEQTRVALLEQQMQACTLDFENEKLDRQHVQHQLHVILKELRKARNQITQLESLKQLHEFAITEPLVTFQGETENREKVAASPKSPTAALNESLVECPKCNIQYPATEHRDLLVHVEYCSK
partner: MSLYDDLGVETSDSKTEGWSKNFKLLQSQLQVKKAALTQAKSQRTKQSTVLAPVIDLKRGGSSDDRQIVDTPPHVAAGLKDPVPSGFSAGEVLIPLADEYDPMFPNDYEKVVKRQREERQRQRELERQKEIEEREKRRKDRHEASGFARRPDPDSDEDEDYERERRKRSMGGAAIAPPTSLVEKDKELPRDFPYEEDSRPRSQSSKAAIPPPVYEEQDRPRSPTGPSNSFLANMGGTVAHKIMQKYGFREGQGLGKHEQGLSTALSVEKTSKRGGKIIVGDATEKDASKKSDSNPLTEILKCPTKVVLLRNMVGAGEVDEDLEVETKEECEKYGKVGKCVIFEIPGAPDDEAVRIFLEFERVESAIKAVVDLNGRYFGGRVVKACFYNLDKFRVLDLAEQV
B4: Syntenin-2 (Homo sapiens), Q9H190 (parent)
chain: MSSLYPSLEDLKVDQAIQAQVRASPKMPALPVQATAISPPPVLYPNLAELENYMGLSLSSQEVQESLLQIPEGDSTAVSGPGPGQMVAPVTGYSLGVRRAEIKPGVREIHLCKDERGKTGLRLRKVDQGLFVQLVQANTPASLVGLRFGDQLLQIDGRDCAGWSSHKAHQVVKKASGDKIVVVVRDRPFQRTVTMHKDSMGHVGFVIKKGKIVSLVKGSSAARNGLLTNHYVCEVDGQNVIGLKDKKIMEILATAGNVVTLTIIPSVIYEHMVKKLPPVLLHHTMDHSIPDA
partner: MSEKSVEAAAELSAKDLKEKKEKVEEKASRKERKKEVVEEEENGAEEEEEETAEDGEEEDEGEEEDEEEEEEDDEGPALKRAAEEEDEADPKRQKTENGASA
B5: Protein FAM200C (Homo sapiens), Q8IZ13 (parent)
chain: MSKKRKWDDDYVRYWFTCTTEVDGTQRPQCVLCNSVFSNADLRPSKLSDHFNRQHGGVAGHDLNSLKHMPAPSDQSETLKAFGVASHEDTLLQASYQFAYLCAKEKNPHTVAEKLVKPCALEIAQIVLGPDAQKKLQQVPLSDDVIHSRIDEMSQDILQQVLEDIKASPLKVGIQLAETTDMDDCSQLMAFVRYIKEREIVEEFLFCEPLQLSMKGIDVFNLFRDFFLKHKIALDVCGSVCTDGASSMLGENSEFVAYVKKEIPHIVVTHCLLNPHALVIKTLPTKLRDALFTVVRVINFIKGRAPNHRLFQAFFEEIGIEYSVLLFHTEMRWLSRGQILTHIFEMYEEINQFLHHKSSNLVDGFENKEFKIHLAYLADLFKHLNELSASMQRTGMNTVSAREKLSAFVRKFPFWQKRIEKRNFTNFPFLEEIIVSDNEGIFIAAEITLHLQQLSNFFHGYFSIGDLNEASKWILDPFLFNIDFVDDSYLMKNDLAELRASGQILMEFETMKLEDFWCAQFTAFPNLAKTALEILMPFATTYLCELGFSSLLHFKTKSRSCFNLSDDIRVAISKKVPRFSDIIEQKLQLQQKSL
B6: Notch homolog 2 N-terminal-like protein A (Homo sapiens), Q7Z3S9 (parent)
chain: MCVTYHNGTGYCKCPEGFLGEYCQHRDPCEKNRCQNGGTCVAQAMLGKATCRCASGFTGEDCQYSTSHPCFVSRPCLNGGTCHMLSRDTYECTCQVGFTGKECQWTDACLSHPCANGSTCTTVANQFSCKCLTGFTGQKCETDVNECDIPGHCQHGGTCLNLPGSYQCQCLQGFTGQYCDSLYVPCAPSPCVNGGTCRQTGDFTFECNCLPETVRRGTELWERDREVWNGKEHDEN
partner: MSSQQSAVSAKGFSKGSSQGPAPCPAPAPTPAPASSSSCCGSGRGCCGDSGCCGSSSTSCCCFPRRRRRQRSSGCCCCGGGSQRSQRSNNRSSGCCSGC
B7: PDZ and LIM domain protein 3 (Homo sapiens), Q53GG5 (parent)
chain: MPQTVILPGPAPWGFRLSGGIDFNQPLVITRITPGSKAAAANLCPGDVILAIDGFGTESMTHADAQDRIKAAAHQLCLKIDRGETHLWSPQVSEDGKAHPFKINLESEPQDGNYFEHKHNIRPKPFVIPGRSSGCSTPSGIDCGSGRSTPSSVSTVSTICPGDLKVAAKLAPNIPLEMELPGVKIVHAQFNTPMQLYSDDNIMETLQGQVSTALGETPLMSEPTASVPPESDVYRMLHDNRNEPTQPRQSGSFRVLQGMVDDGSDDRPAGTRSVRAPVTKVHGGSGGAQRMPLCDKCGSGIVGAVVKARDKYRHPECFVCADCNLNLKQKGYFFIEGELYCETHARARTKPPEGYDTVTLYPKA
B8: G1/S-specific cyclin-D3 (Homo sapiens), P30281 (parent)
chain: MELLCCEGTRHAPRAGPDPRLLGDQRVLQSLLRLEERYVPRASYFQCVQREIKPHMRKMLAYWMLEVCEEQRCEEEVFPLAMNYLDRYLSCVPTRKAQLQLLGAVCMLLASKLRETTPLTIEKLCIYTDHAVSPRQLRDWEVLVLGKLKWDLAAVIAHDFLAFILHRLSLPRDRQALVKKHAQTFLALCATDYTFAMYPPSMIATGSIGAAVQGLGACSMSGDELTELLAGITGTEVDCLRACQEQIEAALRESLREASQTSSSPAPKAPRGSSSQGPSQTSTPTDVTAIHL
partner: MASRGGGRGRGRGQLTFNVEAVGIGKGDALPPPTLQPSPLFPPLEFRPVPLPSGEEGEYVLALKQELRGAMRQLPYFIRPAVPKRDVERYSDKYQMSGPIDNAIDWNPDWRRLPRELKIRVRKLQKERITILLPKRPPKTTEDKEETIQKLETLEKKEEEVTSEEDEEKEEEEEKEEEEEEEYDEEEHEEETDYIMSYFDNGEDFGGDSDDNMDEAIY

Variants of: B1
Details: with cdr2_human CDR2, Q01850
cdr2_human CDR2, Q01850, sequence (Q01850 whole entry): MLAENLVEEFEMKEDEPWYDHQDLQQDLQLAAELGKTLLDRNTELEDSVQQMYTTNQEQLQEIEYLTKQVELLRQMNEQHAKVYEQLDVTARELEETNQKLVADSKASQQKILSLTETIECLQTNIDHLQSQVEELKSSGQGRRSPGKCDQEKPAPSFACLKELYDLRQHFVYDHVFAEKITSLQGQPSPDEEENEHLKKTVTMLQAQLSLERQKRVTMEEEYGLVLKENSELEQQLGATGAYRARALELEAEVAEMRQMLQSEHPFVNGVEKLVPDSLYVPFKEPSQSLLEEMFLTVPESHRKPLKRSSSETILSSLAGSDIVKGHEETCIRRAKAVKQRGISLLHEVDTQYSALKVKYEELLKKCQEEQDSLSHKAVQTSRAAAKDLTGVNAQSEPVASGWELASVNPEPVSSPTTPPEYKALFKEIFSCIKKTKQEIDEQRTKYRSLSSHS

Row | effect of a mutation on the interaction | Variant
1 | with no effect | K104T

Variants of: B1
Details: with traf2_human TRAF2, Q12933
Target sequence in this assay (Q12933 whole entry): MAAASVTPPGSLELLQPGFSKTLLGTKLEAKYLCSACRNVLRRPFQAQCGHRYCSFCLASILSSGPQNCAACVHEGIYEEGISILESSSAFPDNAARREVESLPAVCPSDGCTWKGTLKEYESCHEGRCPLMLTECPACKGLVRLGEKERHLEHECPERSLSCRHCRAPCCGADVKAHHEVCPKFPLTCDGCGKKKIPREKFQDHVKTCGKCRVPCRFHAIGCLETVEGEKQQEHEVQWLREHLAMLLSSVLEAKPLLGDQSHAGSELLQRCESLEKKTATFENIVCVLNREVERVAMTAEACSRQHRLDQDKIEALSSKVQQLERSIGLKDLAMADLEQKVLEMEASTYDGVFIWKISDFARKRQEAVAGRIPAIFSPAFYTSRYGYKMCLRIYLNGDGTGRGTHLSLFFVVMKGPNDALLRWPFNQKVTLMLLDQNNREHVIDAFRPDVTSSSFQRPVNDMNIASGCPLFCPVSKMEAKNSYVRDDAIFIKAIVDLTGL

Row | effect of a mutation on the interaction | Variant
2 | with no effect | K104T

Variants of: B1
Details: with KRT15, P19012
KRT15, P19012, sequence (P19012 whole entry): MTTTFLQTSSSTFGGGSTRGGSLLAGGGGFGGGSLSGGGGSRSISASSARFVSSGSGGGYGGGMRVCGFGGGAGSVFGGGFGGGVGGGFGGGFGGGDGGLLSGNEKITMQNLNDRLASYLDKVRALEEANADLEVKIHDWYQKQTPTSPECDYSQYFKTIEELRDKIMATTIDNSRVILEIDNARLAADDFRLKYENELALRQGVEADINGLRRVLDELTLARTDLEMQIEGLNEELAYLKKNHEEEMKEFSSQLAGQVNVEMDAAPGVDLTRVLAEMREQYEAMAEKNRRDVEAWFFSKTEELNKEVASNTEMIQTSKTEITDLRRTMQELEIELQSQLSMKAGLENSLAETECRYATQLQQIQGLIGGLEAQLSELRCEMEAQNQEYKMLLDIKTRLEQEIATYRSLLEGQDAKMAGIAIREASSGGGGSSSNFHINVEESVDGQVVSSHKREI

Row | effect of a mutation on the interaction | Variant
3 | with no effect | K104T

Variants of: B2
Details: with traf2_human TRAF2, Q12933
Target sequence in this assay (Q12933 whole entry): as the sequence (Q12933 whole entry) above

Row | effect of a mutation on the interaction | Variant
4 | with no effect | C254F
5 | with no effect | R498Q
6 | with no effect | A446T
7 | with no effect | G505R
8 | with no effect | T6S
9 | with no effect | A403S
10 | with no effect | D302H
11 | with no effect | R179P

Variants of: B3
Details: with spf45_human RBM17, Q96I25

Row | effect of a mutation on the interaction | Variant
12 | with no effect | C236R
13 | with no effect | R348K
14 | with no effect | H57Q
15 | with no effect | A244P

Variants of: B4
Details: with ptms_human PTMS

Row | effect of a mutation on the interaction | Variant
16 | disrupting interaction strength | R223C

Variants of: B5
Details: with mt21a_human METTL21A

Row | effect of a mutation on the interaction | Variant
17 | disrupting interaction strength | M248K

Variants of: B6
Details: with crct1_human CRCT1, Q9UGL9

Row | effect of a mutation on the interaction | Variant
18 | with no effect | R74Q
19 | with no effect | A115T

Variants of: B7
Details: with actn2_human ACTN2, P35609
actn2_human ACTN2, P35609, sequence (P35609 whole entry): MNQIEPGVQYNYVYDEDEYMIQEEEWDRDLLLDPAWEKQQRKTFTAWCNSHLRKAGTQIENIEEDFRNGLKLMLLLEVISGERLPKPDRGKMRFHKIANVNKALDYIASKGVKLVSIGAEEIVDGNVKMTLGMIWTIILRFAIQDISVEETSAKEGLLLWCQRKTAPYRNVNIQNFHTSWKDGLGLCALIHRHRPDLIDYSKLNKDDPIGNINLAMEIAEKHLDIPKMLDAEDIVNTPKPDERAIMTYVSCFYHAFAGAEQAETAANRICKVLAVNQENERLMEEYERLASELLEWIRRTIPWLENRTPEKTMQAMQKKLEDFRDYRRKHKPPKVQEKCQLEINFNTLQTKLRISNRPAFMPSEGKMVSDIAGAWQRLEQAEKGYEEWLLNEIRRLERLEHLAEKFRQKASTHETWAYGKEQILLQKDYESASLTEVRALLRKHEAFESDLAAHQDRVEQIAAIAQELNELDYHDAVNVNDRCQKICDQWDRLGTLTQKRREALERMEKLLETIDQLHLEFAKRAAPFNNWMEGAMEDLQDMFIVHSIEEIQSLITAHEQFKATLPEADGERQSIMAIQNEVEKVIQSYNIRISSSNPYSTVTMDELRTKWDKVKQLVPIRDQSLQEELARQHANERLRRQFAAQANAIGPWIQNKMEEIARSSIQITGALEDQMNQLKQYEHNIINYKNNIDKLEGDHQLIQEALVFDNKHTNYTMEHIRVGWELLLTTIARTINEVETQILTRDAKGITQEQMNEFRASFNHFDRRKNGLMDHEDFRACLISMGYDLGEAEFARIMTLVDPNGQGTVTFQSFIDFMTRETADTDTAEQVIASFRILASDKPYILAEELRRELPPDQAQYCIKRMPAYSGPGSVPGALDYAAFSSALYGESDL

Row | effect of a mutation on the interaction | Variant
20 | with no effect | T279M
21 | with no effect | T245I

Variants of: B8
Details: with rpc7l_human POLR3GL

Row | effect of a mutation on the interaction | Variant
22 | with no effect | E253D
